# Patent publication US8728749B2, “Detection of LCAT activity” (priority 2010, dated 2014)
# Target: T1, rhLCAT (Homo sapiens, UniProt P04180)
# T1 construct: made in house; host or cells: HEK293f cells, stably transfected with pcDNA3.1/Hygro carrying the LCAT insert from Origene pCMV6-XL4/LCAT
# T1 sequence (P04180 25-440): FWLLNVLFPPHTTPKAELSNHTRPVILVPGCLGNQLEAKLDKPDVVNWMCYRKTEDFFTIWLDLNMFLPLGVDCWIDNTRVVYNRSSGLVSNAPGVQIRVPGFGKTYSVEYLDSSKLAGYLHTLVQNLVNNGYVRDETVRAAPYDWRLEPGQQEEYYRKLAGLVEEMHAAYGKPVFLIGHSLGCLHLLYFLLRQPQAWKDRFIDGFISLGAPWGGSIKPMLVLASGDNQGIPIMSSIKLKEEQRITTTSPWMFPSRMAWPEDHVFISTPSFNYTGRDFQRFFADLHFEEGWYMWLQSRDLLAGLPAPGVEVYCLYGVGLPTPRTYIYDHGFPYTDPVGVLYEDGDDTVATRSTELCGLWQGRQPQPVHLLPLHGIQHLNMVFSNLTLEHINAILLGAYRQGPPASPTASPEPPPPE
# Experiment: LCAT activating potential of LCAT-activating peptides in mHDL substrate (DHE fluorescence / cholesterol oxidase assay)
# Format: biochemical
# Settings: specific activity of rhLCAT with peptide/POPC/DHE substrate, 50 μM DHE, relative to SEQ ID NO: 1
# Method: Recombinant human LCAT (rhLCAT), isolated from cells expressing human LCAT (Example 5), was diluted into phosphate buffer containing 5 mM β-mercaptoethanol and 60 μM bovine serum albumin to obtain rhLCAT concentrations that would deliver the indicated mass of rhLCAT to assay samples in a 5 μL volume. Substrate, prepared as in Example 1, was diluted to 62.5 μM DHE with phosphate buffer containing 5 mM β-mercaptoethanol and 60 μM bovine serum albumin. One hundred microliter volumes of the diluted substrate were added to individual wells of a black, polystyrene 96-well plate (Whatman 7701-2350) which had previously been loaded with 5 μL of rhLCAT. Blank and control wells were not loaded with rhLCAT. The plate was covered and incubated at 37° C. for one hour. The reaction was quenched by the addition of 25 μL phosphate buffer containing 2% Triton X-100 and 5 units/ml COx (Streptomyces sp.) to all wells except control wells, which received 2% Triton X-100 without COx. The plate was returned to the incubator for one hour, then equilibrated to 37° C. in the plate reader and scanned for DHE fluorescence. Percent fluorescence was calculated from the ratio of the average fluorescence of duplicate wells treated with COx to the average fluorescence of the control wells. The amount of fluorescence remaining after oxidation is directly proportional to the amount of DHE esterified by LCAT. The line represents the fit of the data by linear regression. (FIG. 4).
# (§1) Two microliter aliquots of plasma were added to separate assay wells followed by 100 microliters of substrate (Example 2). The assay plate was incubated for 2 hours at 37° C. followed by quenching with COx (Example 2). The nmoles DHE ester formed in each sample was calculated by subtracting the average fluorescence of the blank wells from the fluorescence of each sample well to obtain net fluorescence. The average net fluorescence of sample wells at each rhLCAT level was then divided by the average net fluorescence of control wells and multiplied by the DHE per well, which was 6.25 nmoles, to yield the nmoles of DHE ester formed. The line represents the fit of the data by linear regression. The activity detected at 0 μg/ml rhLCAT (Y-intercept) is the activity of endogenous mouse LCAT in the plasma (FIG. 5).
# LCAT-activating peptides, which are produced by solid-phase synthesis (GenScript USA, Inc), are dissolved in methanol at 5 mM concentration. Three hundred and ninety seven microliters of 5 mM LAP and 357 microliters of a chloroform solution containing 25 mM POPC and 2.8 mM DHE are added to a glass vial. The solvents are evaporated by directing a gentle stream of inert gas (e.g. nitrogen) into the vial. Residual solvent is removed by high vacuum for 2 hours. The dried mixture is dispersed in 2 milliliters of phosphate buffer (150 mM NaCl, 50 mM sodium phosphate, 1 mM EDTA, pH 7.4) to obtain a final DHE concentration of 0.5 mM. The vial is flushed with inert gas and capped after buffer addition. The dispersion is obtained by vortexing and brief (10 to 30 seconds) sonication in a water bath sonicator. The substrate is protected from light and stored with inert gas in the capped vial at 2-8° C.
# The LCAT activating potential of LAP is determined with the protocol described in Example 2 at a DHE concentration of 50 μM and with the rhLCAT concentrations indicated. A linear regression fit of nmoles DHE ester formed, calculated as in Example 3, versus rhLCAT in the sample yields the specific activity (nmol DHE ester/μg LCAT/hour) of rhLCAT with substrate. This protocol was used to compare and characterize the LCAT activating potential of amphipathic peptides with mean hydrophobicities and mean hydrophobic moments that were sufficient to enable the peptides to form stable micelle complexes with phosphatidylcholine and DHE (Table 3).
row,RELATIVE ACTIVITY (Percent activity relative to SEQ ID: 1),Substance
1,94%,2 (PTLDLFRELLNELLEALKQKLK) [compound 2]
2,87%,3 (PSLDLFRELLNELLEALKQKLK) [compound 3]
3,86%,4 (PVLDLFRELLNELLQKLKK) [compound 4]
4,65%,5 (PTLDLFRELLNELLQKLKK) [compound 5]
5,65%,6 (PVLDLFRELLEELLQKLKK) [compound 6]
6,56%,7 (PVLDLFKELLEELFQKLKK) [compound 7]
7,15%,8 (PVLDKFLELLEELFQKLKK) [compound 8]
8,55%,9 (EWLKAFLEKVLEKLKELF) [compound 9]
9,43%,10 (EWLKAFYEKVLEKLKELF) [compound 10]
10,28%,11 (DWLKAFYDKVFEKFKEFF) [compound 11]
11,21%,12 (EVLKNLLEKLLEKLKELF) [compound 12]
12,0%,13 (DLWQRLLELFNELLEKLKQALK) [compound 13]
13,0%,14 (DVFQALKELFAQLLEKWKQV) [compound 14]

# Tested on: not listed separately
# Experiment: Time course of LCAT activity in plasma from mice injected intravenously with rhLCAT
# Format: in vivo, transgenic mice expressing human apoA-I
# Settings: intravenous, 10 mg/kg (30×), plasma collected at 1 hour post-dose
# Method: as §1
# The utility of the current invention to measure LCAT activity changes in vivo as a result of rhLCAT injection is shown in FIG. 6. Transgenic mice expressing human apoA-I (Jackson Laboratories) and maintained on chow diet were injected (intravenous) with rhLCAT in normal saline at doses of 1 mg/kg (3×), 3 mg/kg (10×) or 10 mg/kg (30×). Control animals were injected with saline alone. Plasma was prepared from blood samples collected at 0.1, 1, 5 and 24 hours following LCAT injection. […]
row,Substance,increase in LCAT activity in plasma
1,rhLCAT: recombinant human LCAT isolated from culture medium of HEK293f cells expressing human LCAT,11 fold
